Experimental data from patent US20250382362A1 (UNIVERSIT TSKLINIKUM REGENSBURG, published 2025).
Changes are numbered by the printed parent chain. Like-named read-outs stand apart in the source and are kept apart here.

Tests used:
Test in all cases: cell-based or functional assay
human IL3 [1] = biological target: T1, human IL3 (human, UniProt P08700 20-152)
T1 sequence: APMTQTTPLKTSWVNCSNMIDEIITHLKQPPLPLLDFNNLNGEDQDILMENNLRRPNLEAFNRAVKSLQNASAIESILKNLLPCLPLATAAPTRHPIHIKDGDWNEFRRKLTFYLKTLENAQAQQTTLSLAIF

human IL3 [2] = biological target: T1, human IL3; remark: listed apart in the source
human IL3 [3] = biological target: T1, human IL3; remark: listed apart in the source
human IL3 [4] = biological target: T1, human IL3; remark: listed apart in the source
human IL3 [5] = biological target: T1, human IL3; remark: listed apart in the source
human IL3 [6] = biological target: T1, human IL3; remark: listed apart in the source

B1: Chimeric P8C11 (antibody, V domains shown)
VH: QVQLQQSGAEMVRPGVSVKIACKGSGFTFTDYALHWVKQSHAKSLEWIGLISTYYGDTTYNQRFKGKATMTVDKSSSTAYMELARLTSEDSAIYYCVITTVAGTDAMDYWGQGTSVTVSS
VL: DIQMNQSPSSLSASLGDTITITCHASQNINVWLSWYQQKPGNIPKLLIYKASNLHTGVPSRFSGSGSGTGFTLTISSLQPEDIATYYCQQGYSYPYTFGGGTKLEIK
B1 was tested, and the “Inhibitory activity (block of IL-3 induced downregulation of CD131 on primary human basophils; chimeric P8C11 normalized to 100%)” value (human IL3 [1]) was 100%, the “Inhibitory activity (block of IL-3 induced downregulation of CD131 on primary human basophils; chimeric P8C11 normalized to 100%)” value (human IL3 [2]) was 100% and the “Inhibitory activity (block of IL-3 induced downregulation of CD131 on primary human basophils; chimeric P8C11 normalized to 100%)” value (human IL3 [3]) was 100%. The “Inhibitory activity (block of IL-3 induced downregulation of CD131 on primary human basophils; chimeric P8C11 normalized to 100%)” value (human IL3 [4]) was 100%, the “Inhibitory activity (block of IL-3 induced downregulation of CD131 on primary human basophils; chimeric P8C11 normalized to 100%)” value (human IL3 [5]) was 100% and the “Inhibitory activity (block of IL-3 induced downregulation of CD131 on primary human basophils; chimeric P8C11 normalized to 100%)” value (human IL3 [6]) was 100%.

B2: HC13 × LC2 (antibody, V domains shown)
VH: QVQLVQSGAEVKKPGASVKVACKGSGFTFTDYALHWVRQAPGQRLEWMGLISTYYGDTTYNQRFKGRVTMTADKSSSTAYMELSSLRSEDTAVYYCVITTVAGTDAMDYWGQGTLVTVSS
VL: B1 VL with N5T, L15V, T18R, I19V, N42K, I43A, G70D, L73F
B2 was tested, and the “Inhibitory activity (block of IL-3 induced downregulation of CD131 on primary human basophils; chimeric P8C11 normalized to 100%)” value (human IL3 [6]) was 25%.

B3: HC3.HMM × muLC (antibody, V domains shown)
VH: B1 VH with Q5V, V12K, R13K, V16A, I20V
VL: B1 VL
For B3, the “Inhibitory activity (block of IL-3 induced downregulation of CD131 on primary human basophils; chimeric P8C11 normalized to 100%)” value (human IL3 [3]) was 100%.

B4: HC14 × LC2 (antibody, V domains shown)
VH: B2 VH with A21S, S76T
VL: B1 VL with N5T, L15V, T18R, I19V, N42K, I43A, G70D, L73F
For B4, the “Inhibitory activity (block of IL-3 induced downregulation of CD131 on primary human basophils; chimeric P8C11 normalized to 100%)” value (human IL3 [6]) was 25%.

B5: MuHC × LC2 (antibody, V domains shown)
VH: B1 VH
VL: B1 VL with N5T, L15V, T18R, I19V, N42K, I43A, G70D, L73F
In the case of B5, the “Inhibitory activity (block of IL-3 induced downregulation of CD131 on primary human basophils; chimeric P8C11 normalized to 100%)” value (human IL3 [2]) is reported as 100%.

B6: HC3 × MuLC (antibody, V domains shown)
VH: B2 VH with V11M, M70I, A72R, K74T, S76A, V93I
VL: B1 VL
In the case of B6, the “Inhibitory activity (block of IL-3 induced downregulation of CD131 on primary human basophils; chimeric P8C11 normalized to 100%)” value (human IL3 [2]) is reported as 6%.

B7: HC3 × LC2 (antibody, V domains shown)
VH: B2 VH with V11M, M70I, A72R, K74T, S76A, V93I
VL: B1 VL with N5T, L15V, T18R, I19V, N42K, I43A, G70D, L73F
With B7 the “Inhibitory activity (block of IL-3 induced downregulation of CD131 on primary human basophils; chimeric P8C11 normalized to 100%)” value (human IL3 [1]) was 6%.

B8: HC12 × LC2 (antibody, V domains shown)
VH: B2 VH with A72V, S76T
VL: B1 VL with N5T, L15V, T18R, I19V, N42K, I43A, G70D, L73F
In the case of B8, the “Inhibitory activity (block of IL-3 induced downregulation of CD131 on primary human basophils; chimeric P8C11 normalized to 100%)” value (human IL3 [6]) is reported as 100%.

B9: HC5 × LC2 (antibody, V domains shown)
VH: QVQLVQSGAEMKKPGASVKVACKGSGFTFTDYALHWVRQAPGQRLEWMGLISTYYGDTTYNQRFKGRVTITRDTSASTAYMELARLTSEDSAIYYCVITTVAGTDAMDYWGQGTSVTVSS
VL: B1 VL with N5T, L15V, T18R, I19V, N42K, I43A, G70D, L73F
With B9 the “Inhibitory activity (block of IL-3 induced downregulation of CD131 on primary human basophils; chimeric P8C11 normalized to 100%)” value (human IL3 [4]) was 9%.

B10: HC2 × LC1 (antibody, V domains shown)
VH: QVQLVQSGSELKKPGASVKVSCKASGFTFTDYALHWVRQAPGQGLEWMGLISTYYGDTTYNQRFKGRFVFSLDTSVSTAYLQISSLKAEDTAVYYCVITTVAGTDAMDYWGQGTLVTVSS
VL: B1 VL with N5T, L11V, L15V, T18R, I19V, N42K, I43A, G70D, I83F
In the case of B10, the “Inhibitory activity (block of IL-3 induced downregulation of CD131 on primary human basophils; chimeric P8C11 normalized to 100%)” value (human IL3 [1]) is reported as 0.5%.

B11: HC7 × LC2 (antibody, V domains shown)
VH: B2 VH with A72V
VL: B1 VL with N5T, L15V, T18R, I19V, N42K, I43A, G70D, L73F
With B11 the “Inhibitory activity (block of IL-3 induced downregulation of CD131 on primary human basophils; chimeric P8C11 normalized to 100%)” value (human IL3 [5]) was 100%.

B12: HC15 × LC2 (antibody, V domains shown)
VH: B2 VH with G24A, S76T
VL: B1 VL with N5T, L15V, T18R, I19V, N42K, I43A, G70D, L73F
With B12 the “Inhibitory activity (block of IL-3 induced downregulation of CD131 on primary human basophils; chimeric P8C11 normalized to 100%)” value (human IL3 [6]) was 8%.

B13: HC11 × LC2 (antibody, V domains shown)
VH: B2 VH with S76T
VL: B1 VL with N5T, L15V, T18R, I19V, N42K, I43A, G70D, L73F
With B13 the “Inhibitory activity (block of IL-3 induced downregulation of CD131 on primary human basophils; chimeric P8C11 normalized to 100%)” value (human IL3 [6]) was 25%.

B14: HC2 × LC3 (antibody, V domains shown)
VH: B10 VH
VL: B1 VL with N5T, L15V, T18R, I19V, N42K, I43V, G70D, I83V
With B14 the “Inhibitory activity (block of IL-3 induced downregulation of CD131 on primary human basophils; chimeric P8C11 normalized to 100%)” value (human IL3 [1]) was 0.5%.

B15: HC1 × LC3 (antibody, V domains shown)
VH: B2 VH with A21S, G24A, M70I, A72R, K74T, S76A
VL: B1 VL with N5T, L15V, T18R, I19V, N42K, I43V, G70D, I83V
B15 was tested, and the “Inhibitory activity (block of IL-3 induced downregulation of CD131 on primary human basophils; chimeric P8C11 normalized to 100%)” value (human IL3 [1]) was 2%.

B16: HC9 × LC2 (antibody, V domains shown)
VH: B2 VH with V11M, A72V, S76A, V93I
VL: B1 VL with N5T, L15V, T18R, I19V, N42K, I43A, G70D, L73F
For B16, the “Inhibitory activity (block of IL-3 induced downregulation of CD131 on primary human basophils; chimeric P8C11 normalized to 100%)” value (human IL3 [5]) was 50%.

B17: HC3 × LC1 (antibody, V domains shown)
VH: B9 VH with A84S, R85S, T87R, S91T, S115L
VL: B1 VL with N5T, L11V, L15V, T18R, I19V, N42K, I43A, G70D, I83F
For B17, the “Inhibitory activity (block of IL-3 induced downregulation of CD131 on primary human basophils; chimeric P8C11 normalized to 100%)” value (human IL3 [1]) was 6%.

B18: HC3 × LC3 (antibody, V domains shown)
VH: B9 VH with A84S, R85S, T87R, S91T, S115L
VL: B1 VL with N5T, L15V, T18R, I19V, N42K, I43V, G70D, I83V
With B18 the “Inhibitory activity (block of IL-3 induced downregulation of CD131 on primary human basophils; chimeric P8C11 normalized to 100%)” value (human IL3 [1]) was 6%.

B19: HC4 × LC2 (antibody, V domains shown)
VH: B2 VH with V11M, R67K, V68A, A72V, V93I
VL: B1 VL with N5T, L15V, T18R, I19V, N42K, I43A, G70D, L73F
In the case of B19, the “Inhibitory activity (block of IL-3 induced downregulation of CD131 on primary human basophils; chimeric P8C11 normalized to 100%)” value (human IL3 [4]) is reported as 100%.

B20: HC6 × LC2 (antibody, V domains shown)
VH: B2 VH with V11M, A72V, V93I
VL: B1 VL with N5T, L15V, T18R, I19V, N42K, I43A, G70D, L73F
B20 was tested, and the “Inhibitory activity (block of IL-3 induced downregulation of CD131 on primary human basophils; chimeric P8C11 normalized to 100%)” value (human IL3 [4]) was 100%.

B21: HC10 × LC2 (antibody, V domains shown)
VH: B2 VH with V11M, M70I, A72V, S76A, V93I
VL: B1 VL with N5T, L15V, T18R, I19V, N42K, I43A, G70D, L73F
With B21 the “Inhibitory activity (block of IL-3 induced downregulation of CD131 on primary human basophils; chimeric P8C11 normalized to 100%)” value (human IL3 [5]) was 40%.

B22: HC1 × LC2 (antibody, V domains shown)
VH: B2 VH with A21S, G24A, M70I, A72R, K74T, S76A
VL: B1 VL with N5T, L15V, T18R, I19V, N42K, I43A, G70D, L73F
With B22 the “Inhibitory activity (block of IL-3 induced downregulation of CD131 on primary human basophils; chimeric P8C11 normalized to 100%)” value (human IL3 [1]) was 2%.

B23: HC3.MHM × muLC (antibody, V domains shown)
VH: B1 VH with K38R, S40A, H41P, A42G, K43Q, S44R, I48M
VL: B1 VL
B23 was tested, and the “Inhibitory activity (block of IL-3 induced downregulation of CD131 on primary human basophils; chimeric P8C11 normalized to 100%)” value (human IL3 [3]) was 100%.

B24: HC1 × LC1 (antibody, V domains shown)
VH: B2 VH with A21S, G24A, M70I, A72R, K74T, S76A
VL: B1 VL with N5T, L11V, L15V, T18R, I19V, N42K, I43A, G70D, I83F
For B24, the “Inhibitory activity (block of IL-3 induced downregulation of CD131 on primary human basophils; chimeric P8C11 normalized to 100%)” value (human IL3 [1]) was 2%.

B25: HC2 × LC2 (antibody, V domains shown)
VH: B10 VH
VL: B1 VL with N5T, L15V, T18R, I19V, N42K, I43A, G70D, L73F
For B25, the “Inhibitory activity (block of IL-3 induced downregulation of CD131 on primary human basophils; chimeric P8C11 normalized to 100%)” value (human IL3 [1]) was 0.5%.

B26: HC3.MMH × muLC (antibody, V domains shown)
VH: QVQLQQSGAEMVRPGVSVKIACKGSGFTFTDYALHWVKQSHAKSLEWIGLISTYYGDTTYNQRFKGRVTITRDTSASTAYMELSSLRSEDTAIYYCVITTVAGTDAMDYWGQGTLVTVSS
VL: B1 VL
For B26, the “Inhibitory activity (block of IL-3 induced downregulation of CD131 on primary human basophils; chimeric P8C11 normalized to 100%)” value (human IL3 [3]) was 4%.

B27: HC8 × LC2 (antibody, V domains shown)
VH: B2 VH with V11M, A21S, G24A, A72V, V93I
VL: B1 VL with N5T, L15V, T18R, I19V, N42K, I43A, G70D, L73F
B27 was tested, and the “Inhibitory activity (block of IL-3 induced downregulation of CD131 on primary human basophils; chimeric P8C11 normalized to 100%)” value (human IL3 [5]) was 25%.
